{
  "source": "the RNAGym collection of RNA variant scans (doi:10.1073/pnas.2313332121)",
  "parents": {"B1": {"name": "TPR 5TU (parent)", "chain": "GGAUCUUCUCGAUCUAACAAAAAAGACAAAUCUGCCACAAAGCUUGAGAGCAUCUUCGGAUGCAGAGGCGGCAGCCUUCGGUGGCGCGAUAGCGCCAACGUUCUCAACUAUGACACGCAAAACGCGUGCUCCGUUGAAUGGAGUUUAUCAUG"}},
  "note": "Variants at the floor of the assay were thinned out.",
  "data": [
    {"variants_of": "B1", "test": "polymerase ribozyme fitness, log enrichment relative to wild type (log ratio); higher = more active; in vitro selection for triplet polymerase activity", "how_it_was_run": "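For each subunit of a heterodimeric triplet polymerase ribozyme, a mutant library was built by PCR and transcribed, then taken through a single in vitro selection round in triplicate. Selection involved annealing to a biotinylated primer, the partner subunit and triplets, incubation frozen at −7 °C, gel excision of extended constructs, capture on streptavidin beads and RT-PCR. Genotypes were retained after Illumina sequencing of inputs and outputs only with ≥10 input reads and ≥1 read in each output. Fitness is defined as the logarithm of a genotype's enrichment relative to wild-type enrichment, using inverse-variance-weighted averages across replicates, with the logarithm taken to base 2.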", "values": [
      {"variant": "C14A A19U U56G G86U C116G C125U G133A G143C", "polymerase ribozyme fitness (log ratio)": "≤ -4.2"},
      {"variant": "C14G A23C C32U C96U", "polymerase ribozyme fitness (log ratio)": -4.1},
      {"variant": "U13G C96U A97U A137U", "polymerase ribozyme fitness (log ratio)": "≤ -4.2"},
      {"variant": "C14A A40C G92C G143A", "polymerase ribozyme fitness (log ratio)": "≤ -4.2"},
      {"variant": "C14A G80A C85U C103G G117U G124U A142G", "polymerase ribozyme fitness (log ratio)": "≤ -4.2"},
      {"variant": "C14A C35U G58A G86A C96U", "polymerase ribozyme fitness (log ratio)": -3.96},
      {"variant": "C14A A16C A19U U82A G83U C149U", "polymerase ribozyme fitness (log ratio)": -3.89},
      {"variant": "C14G A19U G34U C87G G100A A142C", "polymerase ribozyme fitness (log ratio)": "≤ -4.2"},
      {"variant": "C14A C38A C93G", "polymerase ribozyme fitness (log ratio)": "≤ -4.2"},
      {"variant": "C14A C85A", "polymerase ribozyme fitness (log ratio)": -2.69},
      {"variant": "C14A C75U", "polymerase ribozyme fitness (log ratio)": -1.84},
      {"variant": "C14A U82G C96G", "polymerase ribozyme fitness (log ratio)": -2.31},
      {"variant": "C14A A16U A19U A52G G68A C85G U151G", "polymerase ribozyme fitness (log ratio)": "≤ -4.2"},
      {"variant": "C14A U53A C96A A98C A120U G141A", "polymerase ribozyme fitness (log ratio)": -3.99},
      {"variant": "C14A A20G C38A A39G C54U A91C A106U G124C", "polymerase ribozyme fitness (log ratio)": "≤ -4.2"},
      {"variant": "C14A A26U G46A C85U C105A A113G C114A G128A A147G", "polymerase ribozyme fitness (log ratio)": "≤ -4.2"},
      {"variant": "C14A A29U C96A U101G G133C U144C", "polymerase ribozyme fitness (log ratio)": "≤ -4.2"},
      {"variant": "C14A C95U", "polymerase ribozyme fitness (log ratio)": -1.38},
      {"variant": "U13G G58C G62U U82A G86U U127C U146G", "polymerase ribozyme fitness (log ratio)": "≤ -4.2"},
      {"variant": "C14G A19C", "polymerase ribozyme fitness (log ratio)": -1.66},
      {"variant": "C14A A24U U90A", "polymerase ribozyme fitness (log ratio)": "≤ -4.2"},
      {"variant": "C14A A49G C54U G71A U77C G86U G143A", "polymerase ribozyme fitness (log ratio)": "≤ -4.2"},
      {"variant": "C14A U44G", "polymerase ribozyme fitness (log ratio)": -4.1},
      {"variant": "C14A A16G A20G U56A U82G A106G", "polymerase ribozyme fitness (log ratio)": -3.04},
      {"variant": "U13G G80C G94U U134A", "polymerase ribozyme fitness (log ratio)": "≤ -4.2"},
      {"variant": "U13G G58A C95U C96G", "polymerase ribozyme fitness (log ratio)": -4.19},
      {"variant": "C14G A24C A60G G62A G65C C87U U145G", "polymerase ribozyme fitness (log ratio)": "≤ -4.2"},
      {"variant": "C14G A21C C54A G67A G94U C123U", "polymerase ribozyme fitness (log ratio)": "≤ -4.2"},
      {"variant": "C14A A23C A66U C93A G128U U151A", "polymerase ribozyme fitness (log ratio)": "≤ -4.2"},
      {"variant": "C14G A16G A22C A60U C87U C93U A121C", "polymerase ribozyme fitness (log ratio)": "≤ -4.2"},
      {"variant": "U13G U77G U145G U151G", "polymerase ribozyme fitness (log ratio)": "≤ -4.2"},
      {"variant": "C14A G59C U78G C96U", "polymerase ribozyme fitness (log ratio)": "≤ -4.2"},
      {"variant": "C14A A19G G48U A66C A73G G84U U135A U151G", "polymerase ribozyme fitness (log ratio)": "≤ -4.2"},
      {"variant": "C14A A20C C27G", "polymerase ribozyme fitness (log ratio)": "≤ -4.2"},
      {"variant": "U13G U56A", "polymerase ribozyme fitness (log ratio)": -0.285},
      {"variant": "C14A A20C C96U", "polymerase ribozyme fitness (log ratio)": -1.32},
      {"variant": "C14A A150G", "polymerase ribozyme fitness (log ratio)": -2.78},
      {"variant": "C14A C38G G81U G94U", "polymerase ribozyme fitness (log ratio)": -3.15},
      {"variant": "C14G A17U A37U A52G C57U A91U U127A U134A A150U", "polymerase ribozyme fitness (log ratio)": "≤ -4.2"},
      {"variant": "C14A A17C C36A U44A U45A C54A C85G G88U C103G A110C", "polymerase ribozyme fitness (log ratio)": "≤ -4.2"},
      {"variant": "C14G A19U C87G U145A", "polymerase ribozyme fitness (log ratio)": "≤ -4.2"},
      {"variant": "C14A A26U A29G C57G C93A G141C", "polymerase ribozyme fitness (log ratio)": "≤ -4.2"},
      {"variant": "C14A G83A C93G A107G", "polymerase ribozyme fitness (log ratio)": "≤ -4.2"},
      {"variant": "C14A G86C", "polymerase ribozyme fitness (log ratio)": -3.85},
      {"variant": "C14A C35G G59C A64C A73G G141U", "polymerase ribozyme fitness (log ratio)": "≤ -4.2"},
      {"variant": "C14A A16C A28G A60G C79G A91G U109A", "polymerase ribozyme fitness (log ratio)": "≤ -4.2"},
      {"variant": "C14A U101G", "polymerase ribozyme fitness (log ratio)": -1.35},
      {"variant": "C14A A49C C85A U90G G94U A107G G141U", "polymerase ribozyme fitness (log ratio)": "≤ -4.2"},
      {"variant": "C14A A16C G46A G67C C85A C95A", "polymerase ribozyme fitness (log ratio)": "≤ -4.2"},
      {"variant": "C14G A24C", "polymerase ribozyme fitness (log ratio)": -3.63},
      {"variant": "C14G A24U", "polymerase ribozyme fitness (log ratio)": -3.18},
      {"variant": "C14A A17C A41C C96U A115U G141A", "polymerase ribozyme fitness (log ratio)": "≤ -4.2"},
      {"variant": "C14A A17G A22U A24C A41C G70A U78A U90C C129U", "polymerase ribozyme fitness (log ratio)": "≤ -4.2"},
      {"variant": "U13G U56A G86U C131U", "polymerase ribozyme fitness (log ratio)": -4.16},
      {"variant": "C14A A60G C85G C118G C132U", "polymerase ribozyme fitness (log ratio)": -3.89},
      {"variant": "C14G A22U A26G A28C U134A", "polymerase ribozyme fitness (log ratio)": "≤ -4.2"},
      {"variant": "C14G A21U A30U U31C", "polymerase ribozyme fitness (log ratio)": "≤ -4.2"},
      {"variant": "C14A G58A A89U G94U", "polymerase ribozyme fitness (log ratio)": -3.75},
      {"variant": "C14G A28G C51U A52U G88A U109G", "polymerase ribozyme fitness (log ratio)": "≤ -4.2"},
      {"variant": "U13G G84A G143U", "polymerase ribozyme fitness (log ratio)": -3.44},
      {"variant": "C14A G62A C85A G141A", "polymerase ribozyme fitness (log ratio)": -3.57},
      {"variant": "C14A U135A A142C", "polymerase ribozyme fitness (log ratio)": -3.9},
      {"variant": "C14G A19G G46A C72G G84U", "polymerase ribozyme fitness (log ratio)": "≤ -4.2"},
      {"variant": "C14A A16U G83A C93G C95U A98U C108G", "polymerase ribozyme fitness (log ratio)": "≤ -4.2"},
      {"variant": "C14G A26G G58U C72U A122G", "polymerase ribozyme fitness (log ratio)": "≤ -4.2"},
      {"variant": "C14G A23G A73G G84U A122U", "polymerase ribozyme fitness (log ratio)": "≤ -4.2"},
      {"variant": "C14A C35U C57U G59C U134A", "polymerase ribozyme fitness (log ratio)": -4.18},
      {"variant": "U13G G81U G86A C105U", "polymerase ribozyme fitness (log ratio)": -3.74},
      {"variant": "C14G A17G C32U G81A G83C", "polymerase ribozyme fitness (log ratio)": "≤ -4.2"},
      {"variant": "U13G C103A", "polymerase ribozyme fitness (log ratio)": -2.97},
      {"variant": "U13G G68C G84A", "polymerase ribozyme fitness (log ratio)": "≤ -4.2"},
      {"variant": "C14A A19G G68A C99A C123U", "polymerase ribozyme fitness (log ratio)": "≤ -4.2"},
      {"variant": "C14A C27G A91C A115G", "polymerase ribozyme fitness (log ratio)": "≤ -4.2"},
      {"variant": "C14A A64U C93U G141A", "polymerase ribozyme fitness (log ratio)": "≤ -4.2"},
      {"variant": "C14A C54U G83U C95U U111G U134G", "polymerase ribozyme fitness (log ratio)": "≤ -4.2"},
      {"variant": "C14A G25A U53G G84C C87U G117C G124A", "polymerase ribozyme fitness (log ratio)": "≤ -4.2"},
      {"variant": "C14G A26U A30U C75A C93U G141A U148G U151G", "polymerase ribozyme fitness (log ratio)": "≤ -4.2"},
      {"variant": "U13G G46C C54U G92U", "polymerase ribozyme fitness (log ratio)": -3.24},
      {"variant": "C14A A52G C85U A113C", "polymerase ribozyme fitness (log ratio)": -4.15},
      {"variant": "C14A A66U G68A C72G G92U", "polymerase ribozyme fitness (log ratio)": "≤ -4.2"},
      {"variant": "U13G G83C C99G C118G C123U A137G", "polymerase ribozyme fitness (log ratio)": "≤ -4.2"},
      {"variant": "C14G A20G A24U C72G U82G A97G U101C C103G G136A", "polymerase ribozyme fitness (log ratio)": "≤ -4.2"},
      {"variant": "C14G A26U G59C G86C G100A G136U U144A", "polymerase ribozyme fitness (log ratio)": "≤ -4.2"},
      {"variant": "C14A A23G A26U C43U C54U C57A C96G G143A", "polymerase ribozyme fitness (log ratio)": "≤ -4.2"}
    ]}
  ]
}
